# According to article PMC5095173, “Disulfide-activated protein kinase G Iα regulates cardiac diastolic relaxation and fine-tunes the Frank–Starling response” (Nature Communications, 2016):
# B1: Trifunctional enzyme subunit beta, mitochondrial: PKGIα substrate, phospho site S198 (protein, UniProt Q60587 35-475, looked up)
# Trifunctional enzyme subunit …: SAPAVQTKSKKTLAKPNLKNIVVVEGVRIPFLLSGTSYKDLMPHDLARAALSGLLYRTNIPKDVVDYIIFGTVIQEVKTSNVAREAALGAGFSDKTPAHTVTMACISSNQAMTTAVGLIASGQCDVVVAGGVELMSDVPIRHSRNMRKMMLDLNKAKTLAQRLSLLTKFRLNFLSPELPAVAEFSTNETMGHSADRLAAAFAVSRMEQDKYALRSHSLAKKAQDEGHLSDIVPFKVPGKDTVSKDNGIRPSSLEQMAKLKPAFIKPYGTVTAANSSFLTDGASAMLIMSEDRALAMGYKPKAYLRDFIYVSQDPKDQLLLGPTYATPKVLEKAGLTMNDIDAFEFHEAFSGQILANFKAMDSDWFAQNYMGRKTKVGAPPLEKFNIWGGSLSLGHPFGATGCRLVMAAANRLRKDGGQYALVAACAAGGQGHAMIVEAYPK
# modifications: phosphorylated at S198
# B2: Protein NDRG2: PKGIα substrate, phospho site S332 (protein, UniProt Q9QYG0 2-371, looked up)
# Protein NDRG2: AELQEVQITEEKPLLPGQTPETAKEAELAARILLDQGQTHSVETPYGSVTFTVYGTPKPKRPAIFTYHDVGLNYKSCFQPLFRFGDMQEIIQNFVRVHVDAPGMEEGAPVFPLGYQYPSLDQLADMIPCILQYLNFSTIIGVGVGAGAYILSRYALNHPDTVEGLVLINIDPNAKGWMDWAAHKLTGLTSSIPDMILGHLFSQEELSGNSELIQKYRGIIQHAPNLENIELYWNSYNNRRDLNFERGGETTLKCPVMLVVGDQAPHEDAVVECNSKLDPTQTSFLKMADSGGQPQLTQPGKLTEAFKYFLQGMGYMASSCMTRLSRSRTASLTSAASIDGSRSRSRTLSQSSESGTLPSGPPGHTMEVSC
# modifications: phosphorylated S332
# B3: Myosin light chain kinase 3: PKGIα substrate, phospho site S155 (protein, UniProt E9PT87 1-786, looked up)
# Myosin light chain kinase 3: MSGVSEEDPEGLGPQGLPALGGACLVTVDKKLNVLTEKVDRLLHFQEDVTEKLQCVCQGMDHLEQGLHRLEASQELGLAGPGSTSPAAAQAAWPEVLELVRAVRQEGAQHGARLEALFKMVVAVDRAITLVGSTIQNSKVDDFILQGTVPWRKGSLADGPEENKEQAEVAGVKPKHVLNTGSVQAATSRALWEESQKQDTPVGTVEGLPLIIDTSLKGADLTQAGASLRQGVEALDPGQEPPPTEAESRLPALASEDTGTTLELSVAIDRISEVLTSLRMSQSAGEGTSSSKPDCSEPGPQPLGPLTTDSDIHSDEGLPRISVRMREMTTPEELFETQGGSPIGSAEAPGPGTVLEDQIPKGARPFPPLPKRSCNNGGASAEEATGPGAEPIRGPSLVTRDWRDEPVGTTDLQQGRDPGAVSPEPGKDHAAQGPGRTEAGRRVSSAAEAAIVVLDDSAAPPAPFEHRVVSIKDTLISTSYTVSQHEVLGGGRFGQVHRCTERSTGLALAAKIIKVKNIKDREDVKNEINIMNQLSHVNLIQLYDAFESKNSFTLIMEYVDGGELFDRITDEKYHLTELDVVLFTRQICEGVHYLHQHYILHLDLKPENILCVSQTGHQIKIIDFGLARRYKPREKLKVNFGTPEFLAPEVVNYEFVSFPTDMWSVGVITYMLLSGLSPFLGETDAETMNFIVNCSWDFDADTFKGLSEEAKDFVSRLLVKEKSCRMSATQCLKHEWLNHLIAKASGSNVRLRSQLLLQKYMAQRKWKKHFHVVTAVNRLRKFPTCP
# modifications: phosphorylated at S155
# B4: Polymerase I and transcript release factor: PKGIα substrate, phospho sites T304 (r27) and S302 (r28) (protein, UniProt P85125 1-392, looked up)
# Caveolae-associated protein 1: MEDVTLHIVERPYSGYPDASSEGPEPTPGEARATEEPSGTGSDELIKSDQVNGVLVLSLLDKIIGAVDQIQLTQAQLEERQAEMEGAVQSIQGELSKLGKAHATTSNTVSKLLEKVRKVSVNVKTVRGSLERQAGQIKKLEVNEAELLRRRNFKVMIYQDEVKLPAKLSVSKSLKESEALPEKEGDELGEGERPEEDAAAIELSSDEAVEVEEVIEESRAERIKRSGLRRVDDFKKAFSKEKMEKTKVRTRENLEKTRLKTKENLEKTRHTLEKRMNKLGTRLVPVERREKLKTSRDKLRKSFTPDHVVYARSKTAVYKVPPFTFHVKKIREGEVEVLKATEMVEVGPDDDEVGAERGAETDLLRGSSPDVHTLLEITEESDAVLVDKSDSD
# modifications: phosphorylated at T304/S302
# B5: 1-phosphatidylinositol 4,5-bisphosphate phosphodiesterase gamma-1: PKGIα substrate, phospho site S1233 (protein, UniProt P10686 2-1290, looked up)
# 1-phosphatidylinositol …: AGVGTPCANGCGPSAPSEAEVLHLCRSLEVGTVMTLFYSKKSQRPERKTFQVKLETRQITWSRGADKIEGSIDIREIKEIRPGKTSRDFDRYQEDPAFRPDQSHCFVILYGMEFRLKTLSLQATSEDEVNMWIKGLTWLMEDTLQAATPLQIERWLRKQFYSVDRNREDRISAKDLKNMLSQVNYRVPNMRFLRERLTDFEQRSGDITYGQFAQLYRSLMYSAQKTMDLPFLETNTLRTGERPELCQVSLSEFQQFLLEYQGELWAVDRLQVQEFMLSFLRDPLREIEEPYFFLDELVTFLFSKENSVWNSQLDAVCPETMNNPLSHYWISSSHNTYLTGDQFSSESSLEAYARCLRMGCRCIELDCWDGPDGMPVIYHGHTLTTKIKFSDVLHTIKEHAFVASEYPVILSIEDHCSIAQQRNMAQHFRKVLGDTLLTKPVDIAADGLPSPNQLKRKILIKHKKLAEGSAYEEVPTSVMYSENDISNSIKNGILYLEDPVNHEWYPHYFVLTSSKIYYSEETSSDQGNEDEEEPKEASGSTELHSSEKWFHGKLGAGRDGRHIAERLLTEYCIETGAPDGSFLVRESETFVGDYTLSFWRNGKVQHCRIHSRQDAGTPKFFLTDNLVFDSLYDLITHYQQVPLRCNEFEMRLSEPVPQTNAHESKEWYHASLTRAQAEHMLMRVPRDGAFLVRKRNEPNSYAISFRAEGKIKHCRVQQEGQTVMLGNSEFDSLVDLISYYEKHPLYRKMKLRYPINEEALEKIGTAEPDYGALYEGRNPGFYVEANPMPTFKCAVKALFDYKAQREDELTFTKSAIIQNVEKQDGGWWRGDYGGKKQLWFPSNYVEEMINPAILEPEREHLDENSPLGDLLRGVLDVPACQIAIRPEGKNNRLFVFSISMPSVAQWSLDVAADSQEELQDWVKKIREVAQTADARLTEGKMMERRKKIALELSELVVYCRPVPFDEEKIGTERACYRDMSSFPETKAEKYVNKAKGKKFLQYNRLQLSRIYPKGQRLDSSNYDPLPMWICGSQLVALNFQTPDKPMQMNQALFMAGGHCGYVLQPSTMRDEAFDPFDKSSLRGLEPCVICIEVLGARHLPKNGRGIVCPFVEIEVAGAEYDSTKQKTEFVVDNGLNPVWPAKPFHFQISNPEFAFLRFVVYEEDMFSDQNFLAQATFPVKGLKTGYRAVPLKNNYSEDLELASLLIKIDIFPAKENGDLSPFSGTSLRERASDASSQLFHVRAREGSFEARYQQPFEDFRISQEHLADHFDSRERRAPRRTRVNGDNRL
# modifications: phosphorylated at S1233
# Tested on: PKGIα (analogue-sensitive C42S/M438G), cGMP-activated
# Assay: Chemical genetic phosphoproteomic screen, cGMP-activated PKGIα C42S/M438G versus unactivated control
# Format: biochemical, human PKGIα; substrates in rat heart homogenate
# Settings: PKGIα C42S/M438G + 100 μM cGMP vs basal; 1 h, 30 °C, pH 7.5, rat heart homogenate; label-free LC–MS/MS; n=4; * P<0.05 Dunnett: all values except phospholamban S16
# Excerpt: (§1) We employed a chemical genetic method[18] to identify direct substrates of cGMP-activated PKGIα and disulfide bond-activated PKGIα in heart tissue. This method involves mutation of the ATP binding-site of the kinase of interest so that it can accept a ‘bulky' N6-alkylated ATP analogue for example, N6^−phenylethyl ATP. An oxygen atom on the γ phosphate is also replaced with a sulfur atom—giving an N6-alkylated ATPγS analogue—so that the mutant kinase catalyses the transfer of a thiophosphate group (–PO3S^3−) to its substrates instead of a phosphate. The thiophosphate group is nucleophilic, providing a basis for substrates of the analogue-sensitive kinase to be purified by a ‘covalent capture' protocol. LC–MS/MS allows identification of the substrate and localization of the phosphorylation site. Thiophosphorylated proteins can also be detected with a thiophosphate ester-specific antibody. Analogue-sensitive mutants of PKGIα and PKGIα C42S (which cannot form the activating intermolecular disulfide bond) were generated by mutating Met438 in the ATP-binding domain to Gly. This mutation was chosen based on a previous study where an analogue-sensitive mutant of the catalytic subunit of PKA—which shares sequence homology with PKGIα—was engineered. Detailed protocols are given below.
# (§2) A pCDNA3 expression vector encoding human FLAG-tagged PKGIα (ref. [41]) underwent site-directed mutagenesis to generate constructs for untagged WT, C42S, M438G and C42S/M438G PKGIα. Mutations were introduced using the QuikChange II Site-Directed Mutagenesis Kit (Agilent) according to the manufacturer's instructions. Expression and purification of the PKGIα mutants was performed according to a published method[42] as follows: suspension FreeStyle 293-F cells (ThermoFisher Scientific) were transfected with the appropriate PKGIα construct using the stable cationic polymer polyethyleneimine (PEI) as a transfection reagent. After ∼72 h cells were harvested by centrifugation (400g; room temperature; 15 min), re-suspended in ice cold lysis buffer (25 mM sodium phosphate buffer pH 6.8; 10 mM ethylenediaminetetraacetic acid (EDTA); 100 mM NaCl; 10 mM benzamidine hydrochloride; and 10 mM dithiothreitol (DTT)) and frozen in liquid N2. Cells were lysed by three freeze (liquid N2)-thaw (37 °C) cycles and the lysate was clarified by centrifugation at 140,000g and 4 °C for 30 min. The soluble protein fraction was loaded onto a pre-equilibrated 8-(2-aminoethylamino)adenosine-3′, 5′-cyclic monophosphate column (8-AEA-cAMP agarose; BioLog, Germany) followed by washing with 20 column volumes of lysis buffer. The column was further washed with lysis buffer +3 M NaCl (5 column volumes) and PKGIα was then eluted with lysis buffer +150 mM NaCl and 500 μM cAMP. Removal of cAMP and buffer exchange was achieved by extensive dialysis against 25 mM sodium phosphate buffer pH 6.8, 2 mM EDTA and 100 mM NaCl. For ITC analysis, WT PKGIα was incubated with 10 mM lipoic acid for 2 h on ice to obtain ∼100% disulfide dimer (confirmed by SDS-PAGE). Oxidized WT or C42S PKGIα was further purified by size exclusion chromatography using a HiLoad 16/600 Superdex 200 pg column (GE Healthcare) with 50 mM sodium phosphate buffer pH 7.4 and 100 mM NaCl. Proteins were concentrated using Amicon Ultra centrifugal filter devices (Merck Millipore). DTT was absent in storage buffers so that the activating disulfide bond would not be reduced and so that the PKGIα M438G mutant would be oxidized to disulfide dimer in the presence of air (confirmed by SDS-PAGE). Protein concentration was determined by Pierce BCA assay (ThermoFisher) and enzyme activity was confirmed using the Omnia kinase assay kit (ThermoFisher).
# (§3) Male Wistar rats (9–10 weeks; body weight 300–330 g) were euthanized by intraperitoneal injection of sodium pentobarbitone (200 mg kg^−1) with heparin (500 USP units). […]
row,Molecule,"Log2 fold change in phosphorylation, cGMP versus control"
1,B1,3.44*
2,B2,3.42*
3,B3,3.16*
4,B4,3.05*
5,B5,4.50*

# Same assay, conditions: phospho site S302 (second site of this protein); n=4; * P<0.05
row,Molecule,"Log2 fold change in phosphorylation, cGMP versus control"
1,B4,3.16*

# Tested on: PKGIα (analogue-sensitive M438G), disulfide-activated
# Assay: Chemical genetic phosphoproteomic screen, disulfide-activated PKGIα M438G versus unactivated control
# Format: biochemical, human PKGIα; substrates in rat heart homogenate
# Settings: disulfide-activated PKGIα M438G vs basal; 1 h, 30 °C, pH 7.5, rat heart homogenate; label-free LC–MS/MS; n=4; * P<0.05 Dunnett: only phospholamban S16
# Excerpt: as §1, §2, §3
row,Molecule,"Log2 fold change in phosphorylation, Disulfide versus control"
1,B1,0.04
2,B2,1.91
3,B3,1.13
4,B4,1.30
5,B5,1.82

# Same assay, conditions: phospho site S302 (second site of this protein); n=4; not significant
row,Molecule,"Log2 fold change in phosphorylation, Disulfide versus control"
1,B4,1.32
